Assay results from paper doi:10.1101/2020.06.05.136150 (bioRxiv, 2020).
No end group written: not given here. *: point of attachment. FITC = O=C1OC2(c3ccc(O)cc3Oc3cc(O)ccc32)c2ccc(NC(=S)*)cc21

T1: PBP1bγ (E. coli, UniProt P02919-2 1-799)
T1 sequence: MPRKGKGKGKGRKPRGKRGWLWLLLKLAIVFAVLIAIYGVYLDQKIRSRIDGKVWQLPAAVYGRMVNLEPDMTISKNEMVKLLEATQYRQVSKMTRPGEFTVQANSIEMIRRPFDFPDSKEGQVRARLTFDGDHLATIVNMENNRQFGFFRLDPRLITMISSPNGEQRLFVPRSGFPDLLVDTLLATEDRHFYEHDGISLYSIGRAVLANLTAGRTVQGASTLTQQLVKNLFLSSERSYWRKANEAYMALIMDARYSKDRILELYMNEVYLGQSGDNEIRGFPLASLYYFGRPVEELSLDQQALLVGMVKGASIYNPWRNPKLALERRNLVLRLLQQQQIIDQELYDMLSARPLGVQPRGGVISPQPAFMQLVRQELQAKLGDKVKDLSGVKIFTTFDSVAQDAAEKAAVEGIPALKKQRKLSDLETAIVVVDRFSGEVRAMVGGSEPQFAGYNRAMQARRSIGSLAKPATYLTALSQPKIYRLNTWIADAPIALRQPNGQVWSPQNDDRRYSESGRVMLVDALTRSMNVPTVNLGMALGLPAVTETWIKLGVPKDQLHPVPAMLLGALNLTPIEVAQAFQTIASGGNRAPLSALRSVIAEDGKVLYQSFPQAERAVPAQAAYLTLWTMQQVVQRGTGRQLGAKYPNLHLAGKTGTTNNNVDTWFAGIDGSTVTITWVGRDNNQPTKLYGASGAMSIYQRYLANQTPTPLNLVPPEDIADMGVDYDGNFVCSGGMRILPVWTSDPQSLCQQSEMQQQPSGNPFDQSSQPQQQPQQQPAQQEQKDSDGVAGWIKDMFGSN

T2: PBP1b (58-804) (E. coli, UniProt P02919 58-804)
T2 sequence: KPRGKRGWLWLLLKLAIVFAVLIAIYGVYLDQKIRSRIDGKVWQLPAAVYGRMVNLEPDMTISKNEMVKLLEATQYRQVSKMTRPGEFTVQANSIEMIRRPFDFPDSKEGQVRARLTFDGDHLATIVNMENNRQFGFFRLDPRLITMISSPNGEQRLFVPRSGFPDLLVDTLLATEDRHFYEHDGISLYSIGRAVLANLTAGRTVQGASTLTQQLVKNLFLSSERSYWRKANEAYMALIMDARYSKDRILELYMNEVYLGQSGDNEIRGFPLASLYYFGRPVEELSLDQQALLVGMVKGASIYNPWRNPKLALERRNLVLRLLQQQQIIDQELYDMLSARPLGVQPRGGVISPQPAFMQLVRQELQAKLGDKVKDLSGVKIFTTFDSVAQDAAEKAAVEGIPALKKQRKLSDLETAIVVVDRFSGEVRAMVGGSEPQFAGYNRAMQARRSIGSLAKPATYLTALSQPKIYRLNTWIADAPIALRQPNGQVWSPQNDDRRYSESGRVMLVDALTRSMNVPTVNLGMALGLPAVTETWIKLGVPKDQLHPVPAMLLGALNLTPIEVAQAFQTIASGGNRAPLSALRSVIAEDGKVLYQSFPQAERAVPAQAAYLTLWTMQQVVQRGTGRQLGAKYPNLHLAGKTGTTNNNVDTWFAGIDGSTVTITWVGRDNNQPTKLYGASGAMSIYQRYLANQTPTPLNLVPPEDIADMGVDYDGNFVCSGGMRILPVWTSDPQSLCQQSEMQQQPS


Assays:
PBP1bγ = biological target: T1, PBP1bγ; test: fluorescence polarisation
PBP1b (58-804) = biological target: T2, PBP1b (58-804); test: crystal structure

Kd (PBP1bγ) | binding result (PBP1b (58-804)) | Binder
8.1 ± 1.7 µM |  | {FITC}-KVTGNGLPPKPEERWRYIKELESRQ [FITC labeled peptide (FITC-K69-Q93) of FtsN]
 | binds | LPPKPEERWRYIKELESRQ [^EFtsN peptide (L75-Q93), unlabeled]
